Assay results as given in patent publication US20150306234.

System: T1, B domain deleted FVIII (BDD FVIII), unmutated
T1 sequence: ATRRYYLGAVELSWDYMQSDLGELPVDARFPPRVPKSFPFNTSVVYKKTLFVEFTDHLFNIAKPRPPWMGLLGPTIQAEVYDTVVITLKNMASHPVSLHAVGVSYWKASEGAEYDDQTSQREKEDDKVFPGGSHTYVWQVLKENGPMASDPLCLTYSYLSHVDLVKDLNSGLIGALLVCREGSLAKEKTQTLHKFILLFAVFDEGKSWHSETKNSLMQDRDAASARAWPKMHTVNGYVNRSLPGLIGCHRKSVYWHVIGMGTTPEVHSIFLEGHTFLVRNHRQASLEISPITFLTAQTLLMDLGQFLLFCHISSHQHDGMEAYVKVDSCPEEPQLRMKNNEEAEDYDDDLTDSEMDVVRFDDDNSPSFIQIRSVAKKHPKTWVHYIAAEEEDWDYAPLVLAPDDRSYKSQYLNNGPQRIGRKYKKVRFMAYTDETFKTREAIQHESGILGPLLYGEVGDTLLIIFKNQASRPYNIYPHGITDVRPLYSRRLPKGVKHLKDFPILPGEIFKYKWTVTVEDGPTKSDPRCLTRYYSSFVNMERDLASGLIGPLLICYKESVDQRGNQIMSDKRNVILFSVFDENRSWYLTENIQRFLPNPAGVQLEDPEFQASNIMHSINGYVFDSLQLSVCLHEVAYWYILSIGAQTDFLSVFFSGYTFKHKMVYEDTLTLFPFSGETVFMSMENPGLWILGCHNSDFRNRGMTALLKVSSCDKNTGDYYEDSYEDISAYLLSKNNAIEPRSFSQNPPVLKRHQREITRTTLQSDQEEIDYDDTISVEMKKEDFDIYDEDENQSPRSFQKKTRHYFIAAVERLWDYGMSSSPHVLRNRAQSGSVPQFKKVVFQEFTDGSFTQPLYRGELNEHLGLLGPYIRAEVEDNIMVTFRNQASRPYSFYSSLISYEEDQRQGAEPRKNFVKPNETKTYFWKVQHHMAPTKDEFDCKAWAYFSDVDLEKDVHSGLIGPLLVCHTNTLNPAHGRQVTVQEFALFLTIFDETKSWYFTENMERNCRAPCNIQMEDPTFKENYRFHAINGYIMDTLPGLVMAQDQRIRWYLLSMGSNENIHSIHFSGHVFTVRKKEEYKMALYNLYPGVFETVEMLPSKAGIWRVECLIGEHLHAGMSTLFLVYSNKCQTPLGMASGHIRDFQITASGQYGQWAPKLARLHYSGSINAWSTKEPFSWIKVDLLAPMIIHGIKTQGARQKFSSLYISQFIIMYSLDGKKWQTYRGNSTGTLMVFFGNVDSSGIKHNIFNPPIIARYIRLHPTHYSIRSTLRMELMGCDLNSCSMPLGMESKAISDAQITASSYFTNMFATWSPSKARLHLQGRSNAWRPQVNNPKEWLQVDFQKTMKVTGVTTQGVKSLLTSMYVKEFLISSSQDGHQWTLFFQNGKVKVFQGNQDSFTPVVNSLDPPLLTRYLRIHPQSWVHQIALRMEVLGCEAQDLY

## thrombin (Haematologic Technologies, Essex Junction, Vt.)
  thrombin cleavage, SDS-PAGE with silver staining: Thrombin digestion of the muteins and control produced the expected cleavage fragments.
